The target of experiment [1] is T1, PEGylated N-terminus 15 amino acids of active GIP (GIP(1-15)), antigen (1) for measurement (also: PEGylated, site not given here).
T1 construct: also called PEGylated GIP(1-15)
T1 peptide: YAEGTFISDYSIAMD
As to the kind of experiment: ELISA, immobilized antigen, hybridoma culture supernatant. Here is the method:
(§1) The reaction between the hybridoma culture supernatant and the antigen (1) and (2) for measurement was evaluated by ELISA using immobilized antigen (1) and (2), and hybridomas that are positive for the antigen (1) and negative for the antigen (2) were selected as anti-active GIP monoclonal antibody-producing hybridomas.
In general terms: In an ELISA, binding on a coated surface is turned into a signal by an enzyme label.

Experiment [2] concerns the target T2, PEGylated N-terminus 13 amino acids of inactive GIP (GIP(3-15)), antigen (2) for measurement (also: PEGylated, site not given here).
T2 construct: Immobilized on the ELISA plate; also called PEGylated GIP(3-15)
T2 peptide: EGTFISDYSIAMD
The experiment is described as above. The method, then:
as §1

Experiment [3] concerns the target T3, inactive GIP, GIP(3-42).
T3 peptide: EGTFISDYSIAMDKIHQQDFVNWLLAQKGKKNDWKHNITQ
As to the kind of experiment: sandwich ELISA, anti-total GIP capture antibody, biotinylated m1 as detection antibody at 1 ug/mL. Here is the method:
The reactivity between the monoclonal antibody prepared in Production Example 1 and active GIP was confirmed by ELISA. The amino group of the anti-active GIP monoclonal antibody was biotinylated with NH2 group biotinylation kit (manufactured by Dojindo Laboratories). ELISA was performed using the produced biotinylated anti-active GIP monoclonal antibody at 1 μg/mL instead of a detection antibody, GIP detection antibody (biotinylated anti-total GIP monoclonal antibody), included in Human (total) GIP ELISA kit (manufactured by EMD Millipore Corporation). A […] dilution series of GIP(1-42) or GIP(3-42) was prepared in 6 steps (8.2 to 2000 pg/mL) with a 2000 pg/mL solution as the highest concentration. By using an anti-total GIP monoclonal antibody (included in Human GIP (total) ELISA kit manufactured by EMD Millipore Corporation) as a capture antibody, the biotinylated anti-active GIP monoclonal antibody as a detection antibody, and a peroxidase-streptavidin conjugate for detection, sandwich ELISA was conducted to prepare a calibration curve with GIP concentration on the X-axis and 450 nm-590 nm absorbance on the Y-axis (FIG. 1).

Ends that are not written are not given here.

B1: anti-active GIP monoclonal antibody produced by hybridoma 9B9H5-B9 line (Production Example 1) (antibody, V domains shown)
VH: QVQLQQPGAELVKPGASVKLSCKASGYTFTSFWMHWVIQRPGQGLEWIGEMNPSDGRTHFNEKFKTKATLTIDTSSNTAYMELNSLTSEDSAVYYCARRMEDWGQGTLVTVSA
VL: DIKMTQSPSSMYASLGERVTITCKASQDINSYLGWFQQKPGKSPKTLIYGANRLVDGVPSRFSGSGSGQDYSLTISSLEYDDMGIYYCLQYDEFPLTFGAGTKLELKR
notes: also called anti-active GIP antibody; anti-GIP antibody
On to B1, for which the results for the binding result in experiment [1], in experiment [2] and in experiment [3] were “binds”, “no binding” and “no binding (tested: 2000 pg/mL)”, respectively.

These data come from patent publication US20190330334A1 (KAO, published 2019).
